pKd: −log10 of the molar value.
Target: Human TLR4/MD-2 complex (human) (UniProt O00206)
Experiment: SPR; Biacore T200; TLR4/MD-2 amine-coupled on CM5 (1100 RU); GST-A-box, GST-B-box (150-5000 nM), A-box or GST injected at 30 μL/min for 60 s, 25 °C, dissociation 1 min; HBS-EP pH 7.4; GST-A-box: association and dissociation fitted separately to a 1:1 model; GST-B-box: steady-state affinity model; apparent KD

Sequence of Human TLR4/MD-2 complex (human) (O00206 24-631, chain 1 of 2): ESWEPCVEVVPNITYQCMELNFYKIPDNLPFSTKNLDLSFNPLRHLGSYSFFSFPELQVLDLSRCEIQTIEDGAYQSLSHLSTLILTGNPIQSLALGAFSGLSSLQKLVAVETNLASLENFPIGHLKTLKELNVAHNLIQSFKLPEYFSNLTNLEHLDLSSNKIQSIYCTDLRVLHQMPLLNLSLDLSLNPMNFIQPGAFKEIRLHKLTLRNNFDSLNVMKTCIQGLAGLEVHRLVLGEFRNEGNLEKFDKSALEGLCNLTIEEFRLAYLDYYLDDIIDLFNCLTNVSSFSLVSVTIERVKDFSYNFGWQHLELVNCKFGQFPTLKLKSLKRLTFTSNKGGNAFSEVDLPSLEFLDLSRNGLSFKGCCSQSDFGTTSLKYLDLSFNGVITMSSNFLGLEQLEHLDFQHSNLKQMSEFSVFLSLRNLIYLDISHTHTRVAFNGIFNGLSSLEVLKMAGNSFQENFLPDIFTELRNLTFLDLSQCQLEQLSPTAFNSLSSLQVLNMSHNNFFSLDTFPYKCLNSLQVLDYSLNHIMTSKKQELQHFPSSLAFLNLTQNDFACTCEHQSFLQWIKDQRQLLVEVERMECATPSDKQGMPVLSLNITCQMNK
Sequence of Human TLR4/MD-2 complex (human) (Q9Y6Y9 19-160, chain 2 of 2, further chain): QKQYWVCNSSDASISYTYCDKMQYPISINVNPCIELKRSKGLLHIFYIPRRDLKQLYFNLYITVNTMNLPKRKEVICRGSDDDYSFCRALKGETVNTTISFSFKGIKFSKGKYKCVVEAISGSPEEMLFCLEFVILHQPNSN

- pKd: 5.24
Substance: Recombinant GST-B-box (domain or fragment)
